In IntAct's records for PubMed 11779178:

B1: Merlin (Homo sapiens), P35240-3 (parent)
chain: MAGAIASRMSFSSLKRKQPKTFTVRIVTMDAEMEFNCEMKWKGKDLFDLVCRTLGLRETWFFGLQYTIKDTVAWLKMDKKVLDHDVSKEEPVTFHFLAKFYPENAEEELVQEITQHLFFLQVKKQILDEKIYCPPEASVLLASYAVQAKYGDYDPSVHKRGFLAQEELLPKRVINLYQMTPEMWEERITAWYAEHRGRARDEAEMEYLKIAQDLEMYGVNYFAIRNKKGTELLLGVDALGLHIYDPENRLTPKISFPWNEIRNISYSDKEFTIKPLDKKIDVFKFNSSKLRVNKLILQLCIGNHDLFMRRRKADSLEVQQMKAQAREEKARKQMERQRLAREKQMREEAERTRDELERRLLQMKEEATMANEALMRSEETADLLAEKAQITEEEAKLLAQKAAEAEQEMQRIKATAIRTEEEKRLMEQKVLEAEVLALKMAEESERRAKEADQLKQDLQEAREAERRAKQKLLEIATKPTYPPMNPIPAPLPPDIPSFNLIGDSLSFDFKDTDMKRLSMEIEKEKVEYMEKSKHLQEQLNELKTEIEALKLKERETALDILHNENSDRGGSSKHNTIKKPQAQGRRPICI

Legend:
[1] = variants of: B1; details: with eif3c_human EIF3C
HGS, O14964-2 = variants of: B1; details: with HGS
Sequence of HGS, O14964-2 (O14964 other isoform, or with tags, fused parts or gaps): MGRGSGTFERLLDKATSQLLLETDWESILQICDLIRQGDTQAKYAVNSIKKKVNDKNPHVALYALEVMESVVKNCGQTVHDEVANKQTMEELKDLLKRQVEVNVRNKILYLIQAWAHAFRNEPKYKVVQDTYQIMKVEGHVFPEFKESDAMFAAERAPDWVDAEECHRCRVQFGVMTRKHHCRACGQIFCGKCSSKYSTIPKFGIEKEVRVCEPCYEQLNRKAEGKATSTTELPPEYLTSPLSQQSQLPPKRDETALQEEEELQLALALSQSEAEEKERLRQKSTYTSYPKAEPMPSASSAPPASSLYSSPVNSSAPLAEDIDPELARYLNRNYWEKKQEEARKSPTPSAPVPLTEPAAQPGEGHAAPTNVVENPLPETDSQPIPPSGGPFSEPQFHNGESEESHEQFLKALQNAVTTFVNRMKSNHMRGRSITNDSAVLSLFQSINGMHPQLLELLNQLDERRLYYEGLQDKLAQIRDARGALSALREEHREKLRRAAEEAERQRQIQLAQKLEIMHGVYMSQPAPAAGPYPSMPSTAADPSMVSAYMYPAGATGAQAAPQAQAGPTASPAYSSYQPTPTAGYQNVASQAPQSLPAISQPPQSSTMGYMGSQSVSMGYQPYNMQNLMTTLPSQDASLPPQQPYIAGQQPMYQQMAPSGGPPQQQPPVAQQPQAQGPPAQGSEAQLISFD

HGS, O14964-1 = variants of: B1; details: with HGS
Sequence of HGS, O14964-1 (O14964 whole entry): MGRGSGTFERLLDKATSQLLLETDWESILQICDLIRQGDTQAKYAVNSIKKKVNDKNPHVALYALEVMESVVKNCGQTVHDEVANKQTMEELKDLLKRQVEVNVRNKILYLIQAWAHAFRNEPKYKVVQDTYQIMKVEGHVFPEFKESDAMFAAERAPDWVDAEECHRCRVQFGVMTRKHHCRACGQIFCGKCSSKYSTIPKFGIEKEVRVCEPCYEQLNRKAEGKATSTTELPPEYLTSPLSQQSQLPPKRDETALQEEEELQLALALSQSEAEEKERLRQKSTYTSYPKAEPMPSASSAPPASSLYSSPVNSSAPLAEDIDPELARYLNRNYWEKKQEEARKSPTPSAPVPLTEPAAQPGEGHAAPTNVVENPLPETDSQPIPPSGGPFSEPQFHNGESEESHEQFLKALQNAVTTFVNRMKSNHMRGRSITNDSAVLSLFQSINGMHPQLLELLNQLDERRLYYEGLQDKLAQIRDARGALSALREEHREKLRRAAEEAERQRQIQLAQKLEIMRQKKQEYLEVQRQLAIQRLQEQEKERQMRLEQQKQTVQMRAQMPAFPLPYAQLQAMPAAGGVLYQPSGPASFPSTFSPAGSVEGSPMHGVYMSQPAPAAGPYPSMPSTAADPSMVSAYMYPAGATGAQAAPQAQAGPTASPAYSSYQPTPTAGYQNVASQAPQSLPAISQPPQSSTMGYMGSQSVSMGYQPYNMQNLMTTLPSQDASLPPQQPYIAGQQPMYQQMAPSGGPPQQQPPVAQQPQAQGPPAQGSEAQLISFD

NF2, P35240-1 = variants of: B1; details: with NF2, P35240-1
[2] = variants of: B1; details: with sptb2_human SPTBN1, Q01082
Sequence of sptb2_human SPTBN1, Q01082 (Q01082 whole entry): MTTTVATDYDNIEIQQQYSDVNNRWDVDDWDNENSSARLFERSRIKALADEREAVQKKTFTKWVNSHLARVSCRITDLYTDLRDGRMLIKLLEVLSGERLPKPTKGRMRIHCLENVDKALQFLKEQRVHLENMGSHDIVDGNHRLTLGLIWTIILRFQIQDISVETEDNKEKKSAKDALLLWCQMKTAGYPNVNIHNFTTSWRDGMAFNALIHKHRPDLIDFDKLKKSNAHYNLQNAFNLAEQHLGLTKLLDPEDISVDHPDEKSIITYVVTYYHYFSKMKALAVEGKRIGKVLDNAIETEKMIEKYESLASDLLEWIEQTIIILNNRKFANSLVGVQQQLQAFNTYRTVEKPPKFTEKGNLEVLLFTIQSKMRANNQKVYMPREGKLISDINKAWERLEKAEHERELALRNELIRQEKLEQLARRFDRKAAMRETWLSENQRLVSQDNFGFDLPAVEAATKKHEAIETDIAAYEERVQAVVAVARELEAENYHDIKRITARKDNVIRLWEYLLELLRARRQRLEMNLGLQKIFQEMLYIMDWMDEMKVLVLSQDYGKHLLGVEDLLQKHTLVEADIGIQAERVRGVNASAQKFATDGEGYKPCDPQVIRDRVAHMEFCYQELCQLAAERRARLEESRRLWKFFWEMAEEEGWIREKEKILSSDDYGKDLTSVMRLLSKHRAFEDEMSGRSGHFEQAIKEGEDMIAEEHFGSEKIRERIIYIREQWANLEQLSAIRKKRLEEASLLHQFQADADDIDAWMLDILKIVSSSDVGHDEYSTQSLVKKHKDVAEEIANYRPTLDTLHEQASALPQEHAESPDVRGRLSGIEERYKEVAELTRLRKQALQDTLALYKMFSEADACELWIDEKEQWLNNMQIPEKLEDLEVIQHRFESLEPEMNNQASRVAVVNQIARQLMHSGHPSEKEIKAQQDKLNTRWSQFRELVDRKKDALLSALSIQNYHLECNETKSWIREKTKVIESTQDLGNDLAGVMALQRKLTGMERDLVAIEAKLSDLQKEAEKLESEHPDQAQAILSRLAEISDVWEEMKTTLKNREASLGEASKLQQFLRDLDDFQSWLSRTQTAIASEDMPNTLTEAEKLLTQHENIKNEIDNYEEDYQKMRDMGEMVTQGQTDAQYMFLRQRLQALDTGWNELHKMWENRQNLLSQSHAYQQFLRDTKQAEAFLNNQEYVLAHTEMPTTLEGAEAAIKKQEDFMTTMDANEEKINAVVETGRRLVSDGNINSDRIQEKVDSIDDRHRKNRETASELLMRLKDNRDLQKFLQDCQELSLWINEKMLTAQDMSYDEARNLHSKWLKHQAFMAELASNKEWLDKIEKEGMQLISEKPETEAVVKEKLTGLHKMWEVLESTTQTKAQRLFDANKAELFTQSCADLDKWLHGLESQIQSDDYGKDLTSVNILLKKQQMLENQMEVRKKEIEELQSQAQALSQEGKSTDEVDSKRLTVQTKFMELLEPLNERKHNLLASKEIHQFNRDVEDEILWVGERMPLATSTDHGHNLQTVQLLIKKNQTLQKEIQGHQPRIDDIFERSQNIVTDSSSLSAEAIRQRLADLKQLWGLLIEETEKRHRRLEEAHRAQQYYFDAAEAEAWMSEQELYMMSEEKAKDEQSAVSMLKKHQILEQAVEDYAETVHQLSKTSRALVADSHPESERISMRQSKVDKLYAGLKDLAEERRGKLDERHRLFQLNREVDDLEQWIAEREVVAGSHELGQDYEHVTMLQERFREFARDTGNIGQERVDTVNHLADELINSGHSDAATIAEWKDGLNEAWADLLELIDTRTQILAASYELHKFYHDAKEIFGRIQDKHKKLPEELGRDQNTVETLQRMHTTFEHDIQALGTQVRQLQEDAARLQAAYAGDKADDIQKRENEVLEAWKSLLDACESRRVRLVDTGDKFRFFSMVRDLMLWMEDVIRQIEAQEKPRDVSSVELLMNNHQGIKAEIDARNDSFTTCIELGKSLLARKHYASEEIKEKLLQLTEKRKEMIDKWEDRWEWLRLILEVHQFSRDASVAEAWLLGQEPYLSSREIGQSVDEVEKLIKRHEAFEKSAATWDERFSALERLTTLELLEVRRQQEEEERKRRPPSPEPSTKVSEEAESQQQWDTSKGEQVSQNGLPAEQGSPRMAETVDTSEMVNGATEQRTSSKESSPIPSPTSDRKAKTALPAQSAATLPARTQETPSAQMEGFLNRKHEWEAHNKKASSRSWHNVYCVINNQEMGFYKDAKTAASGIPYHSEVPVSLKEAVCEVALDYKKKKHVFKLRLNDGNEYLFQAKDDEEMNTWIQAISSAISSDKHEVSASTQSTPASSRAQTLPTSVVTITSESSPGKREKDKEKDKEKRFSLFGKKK

Row | effect of a mutation on the interaction [1] | effect of a mutation on the interaction (HGS, O14964-2) | effect of a mutation on the interaction (HGS, O14964-1) | effect of a mutation on the interaction (NF2, P35240-1) | effect of a mutation on the interaction [2] | Variant
1 | with no effect | increasing interaction strength | increasing interaction strength | with no effect | increasing interaction strength | MAGAIASRMSFSSLKRKQPKTFTVRIVTMDAEMEFNCEMKWKGKDLFDLVCRTLGLRETWFFGLQYTIKDTVAWLKMDKKVLDHDVSKEEPVTFHFLAKFYPENAEEELVQEITQHLFFLQVKKQILDEKIYCPPEASVLLASYAVQAKYGDYDPSVHKRGFLAQEELLPKRVINLYQMTPEMWEERITAWYAEHRGRARDEAEMEYLKIAQDLEMYGVYYFAIRNKKGTELLLGVDALGLHIYDPENRLTPKISFPWNEIRNISYSDKEFTIKPLDKKIDVFKFNSSKLRVNKLILQLCIGNHDLFMRRRKADSLEVQQMKAQAREEKARKQMERQRLAREKQMREEAERTRDELERRLLQMKEEATMANEALMRSEETADLLAEKAQITEEEAKLLAQKAAEAEQEMQRIKATAIRTEEEKRLMEQKVLEAEVLALKMAEESERRAKEADQLKQDLQEAREAERRAKQKLLEIATKPTYPPMNPIPAPLPPDIPSFNLIGDSLSFDFKDTDMKRLSMEIEKEKVEYMEKSKHLQEQLNELKTEIEALKLKERETALDILHNENSDRGGSSKHNTIKKPQAQGRRPICI [N220Y]
2 | decreasing interaction strength | increasing interaction strength | increasing interaction strength | with no effect | increasing interaction strength | MAGAIASRMSFSSLKRKQPKTFTVRIVTMDAEMEFNCEMKWKGKDLFDLVCRTLGLRETWFFGLQYTIKDTVAWLKMDKKVLDHDVSKEEPVTFHFLAKFYPENAEEELVQEITQHLFFLQVKKQILDEKIYCPPEASVLLASYAVQAKYGDYDPSVHKRGFLAQEELLPKRVINLYQMTPEMWEERITAWYAEHRGRARDEAEMEYLKIAQDLEMYGVNYFAIRNKKGTELLLGVDALGLHIYDPENRLTPKISFPWNEIRNISYSDKEFTFKPLDKKIDVFKFNSSKLRVNKLILQLCIGNHDLFMRRRKADSLEVQQMKAQAREEKARKQMERQRLAREKQMREEAERTRDELERRLLQMKEEATMANEALMRSEETADLLAEKAQITEEEAKLLAQKAAEAEQEMQRIKATAIRTEEEKRLMEQKVLEAEVLALKMAEESERRAKEADQLKQDLQEAREAERRAKQKLLEIATKPTYPPMNPIPAPLPPDIPSFNLIGDSLSFDFKDTDMKRLSMEIEKEKVEYMEKSKHLQEQLNELKTEIEALKLKERETALDILHNENSDRGGSSKHNTIKKPQAQGRRPICI [I273F]
